± gives the standard deviation of the averaged measurements.
Experiment: total protein half-life in vivo (active degradation + dilution); higher = more stable protein
[1] = E. coli NCM3722 delta-clpP delta-lon delta-hslV, growth: N-lim chemostat, doubling time 6 h
[2] = E. coli NCM3722 delta-clpP, growth: N-lim chemostat, doubling time 6 h
[3] = E. coli NCM3722 delta-hslV, growth: N-lim chemostat, doubling time 6 h
[4] = E. coli NCM3722 delta-lon, growth: N-lim chemostat, doubling time 6 h
[5] = E. coli NCM3722 delta-smpB, growth: N-lim chemostat, doubling time 6 h
[6] = wild type E. coli NCM3722, growth: C-lim chemostat, doubling time 3 h
[7] = wild type E. coli NCM3722, growth: C-lim chemostat, doubling time 6 h
[8] = wild type E. coli NCM3722, growth: C-lim chemostat, doubling time 12 h
[9] = wild type E. coli NCM3722, growth: N-lim chemostat, doubling time 6 h
[10] = wild type E. coli NCM3722, growth: N-lim chemostat, doubling time 12 h
[11] = wild type E. coli NCM3722, growth: P-lim chemostat, doubling time 6 h
[12] = wild type E. coli NCM3722, growth: P-lim chemostat, doubling time 12 h

Sequence	total protein half-life in vivo [1] [h]	total protein half-life in vivo [2] [h]	total protein half-life in vivo [3] [h]	total protein half-life in vivo [4] [h]	total protein half-life in vivo [5] [h]	total protein half-life in vivo [6] [h]	total protein half-life in vivo [7] [h]	total protein half-life in vivo [8] [h]	total protein half-life in vivo [9] [h]	total protein half-life in vivo [10] [h]	total protein half-life in vivo [11] [h]	total protein half-life in vivo [12] [h]
MANPLYQKHIISINDLSRDDLNLVLATAAKLKANPQPELLKHKVIASCFFEASTRTRLSFETSMHRLGASVVGFSDSANTSLGKKGETLADTISVISTYVDAIVMRHPQEGAARLATEFSGNVPVLNAGDGSNQHPTQTLLDLFTIQETQGRLDNLHVAMVGDLKYGRTVHSLTQALAKFDGNRFYFIAPDALAMPQYILDMLDEKGIAWSLHSSIEEVMAEVDILYMTRVQKERLDPSEYANVKAQFVLRASDLHNAKANMKVLHPLPRVDEIATDVDKTPHAWYFQQAGNGIFARQALLALVLNRDLVL [P0A786]	6.1 ± 1.2	4.74 ± 0.28	4.54 ± 0.5	4.9 ± 0.09	5.02 ± 0.63	3.22 ± 0.23	5.83 ± 0.35	10.4 ± 1.8	4.75 ± 0.085	8.23 ± 1.4	5.94 ± 0.21	10.7 ± 0.62
MKRVSQMTALAMALGLACASSWAAELAKPLTLDQLQQQNGKAIDTRPSAFYNGWPQTLNGPSGHELAALNLSASWLDKMSTEQLNAWIKQHNLKTDAPVALYGNDKDVDAVKTRLQKAGLTHISILSDALSEPSRLQKLPHFEQLVYPQWLHDLQQGKEVTAKPAGDWKVIEAAWGAPKLYLISHIPGADYIDTNEVESEPLWNKVSDEQLKAMLAKHGIRHDTTVILYGRDVYAAARVAQIMLYAGVKDVRLLDGGWQTWSDAGLPVERGTPPKVKAEPDFGVKIPAQPQLMLDMEQARGLLHRQDASLVSIRSWPEFIGTTSGYSYIKPKGEIAGARWGHAGSDSTHMEDFHNPDGTMRSADDITAMWKAWNIKPEQQVSFYCGTGWRASETFMYARAMGWKNVSVYDGGWYEWSSDPKNPVATGERGPDSSK	5.98 ± 1.8	6.55 ± 1.7	6.79 ± 0.81	6.48 ± 0.13	6.47 ± 0.44	3.2 ± 0.56	6.183 ± 0.011	12.3 ± 0.77	6.69 ± 1.1	13 ± 1.9	6.19 ± 0.064	14.4 ± 0.58
MTMFQYYKRSRHFVFSAFIAFVFVLLCQNTAFARASSNGDLPTKADLQAQLDSLNKQKDLSAQDKLVQQDLTDTLATLDKIDRIKEETVQLRQKVAEAPEKMRQATAALTALSDVDNDEETRKILSTLSLRQLETRVAQALDDLQNAQNDLASYNSQLVSLQTQPERVQNAMYNASQQLQQIRSRLDGTDVGETALRPSQKVLMQAQQALLNAEIDQQRKSLEGNTVLQDTLQKQRDYVTANSARLEHQLQLLQEAVNSKRLTLTEKTAQEAVSPDEAARIQANPLVKQELEINQQLSQRLITATENGNQLMQQNIKVKNWLERALQSERNIKEQIAVLKGSLLLSRILYQQQQTLPSADELENMTNRIADLRLEQFEVNQQRDALFQSDAFVNKLEEGHTNEVNSEVHDALLQVVDMRRELLDQLNKQLGNQLMMAINLQINQQQLMSVSKNLKSILTQQIFWVNSNRPMDWDWIKAFPQSLKDEFKSMKITVNWQKAWPAVFIAFLAGLPLLLIAGLIHWRLGWLKAYQQKLASAVGSLRNDSQLNTPKAILIDLIRALPVCLIILAVGLILLTMQLNISELLWSFSKKLAIFWLVFGLCWKVLEKNGVAVRHFGMPEQQTSHWRRQIVRISLALLPIHFWSVVAELSPLHLMDDVLGQAMIFFNLLLIAFLVWPMCRESWRDKESHTMRLVTITVLSIIPIALMVLTATGYFYTTLRLAGRWIETVYLVIIWNLLYQTVLRGLSVAARRIAWRRALARRQNLVKEGAEGAEPPEEPTIALEQVNQQTLRITMLLMFALFGVMFWAIWSDLITVFSYLDSITLWHYNGTEAGAAVVKNVTMGSLLFAIIASMVAWALIRNLPGLLEVLVLSRLNMRQGASYAITTILNYIIIAVGAMTVFGSLGVSWDKLQWLAAALSVGLGFGLQEIFGNFVSGLIILFERPVRIGDTVTIGSFSGTVSKIRIRATTITDFDRKEVIIPNKAFVTERLINWSLTDTTTRLVIRLGVAYGSDLEKVRKVLLKAATEHPRVMHEPMPEVFFTAFGASTLDHELRLYVRELRDRSRTVDELNRTIDQLCRENDINIAFNQLEVHLHNEKGDEVTEVKRDYKGDDPTPAVG	5.8 ± 0.075	6.4 ± 0.7	5.72 ± 0.36	6.99 ± 1.1	5.79 ± 0.11	3.06 ± 0.094	5.56 ± 0.15	11.1 ± 2.1	6.73 ± 0.33	13.1 ± 1.6	5.94 ± 0.43	11.4 ± 0.85
MATLTEDDVLEQLDAQDNLFSFMKTAHTILLQGIRQFLPSLFVDNDEEIVEYAVKPLLAQSGPLDDIDVALRLIYALGKMDKWLYADITHFSQFWHYLNEQDETPGFADDMTWDFISNVNSITRNAMLYDALKAMKFADFSVWSEARFSGMVKTALTLAVTTTLKELTP	4.21 ± 0.82	3.67	2.45	2.61 ± 0.36	2.07	2.02	> 8	4.45 ± 0.14	2.38	4.18	2.29	3.96 ± 1
MATPHINAEMGDFADVVLMPGDPLRAKYIAETFLEDAREVNNVRGMLGFTGTYKGRKISVMGHGMGIPSCSIYTKELITDFGVKKIIRVGSCGAVLPHVKLRDVVIGMGACTDSKVNRIRFKDHDFAAIADFDMVRNAVDAAKALGIDARVGNLFSADLFYSPDGEMFDVMEKYGILGVEMEAAGIYGVAAEFGAKALTICTVSDHIRTHEQTTAAERQTTFNDMIKIALESVLLGDKE [P0ABP8]	5.35 ± 0.52	4.9 ± 0.79	4.26 ± 0.18	5.28 ± 0.12	4.44 ± 0.086	3.14 ± 0.25	5.99 ± 0.48	12.6 ± 1.4	4.38 ± 0.34	7.48 ± 0.6	5.65 ± 0.38	13.1 ± 0.34
MKNNSQLLMPREKMLKFGISALTDVELLALFLRTGTRGKDVLTLAKEMLENFGSLYGLLTSEYEQFSGVHGIGVAKFAQLKGIAELARRYYNVRMREESPLLSPEMTREFLQSQLTGEEREIFMVIFLDSQHRVITHRRLFSGTLNHVEVHPREIIREAIKINASALILAHNHPSGCAEPSKADKLITERIIKSCQFMDLRVLDHIVIGRGEYVSFAERGWI						3.03			4.31			
MTNRISRLKTALFANTREISLERALLYTASHRQTEGEPVILRRAKATAYILEHVEISIRDEELIAGNRTVKPRAGIMSPEMDPYWLLKELDQFPTRPQDRFAISEEDKRIYREELFPYWEKRSMKDFINGQMTDEVKAATNTQIFSINQTDKGQGHIIIDYPRLLNHGLGELVAQMQQHCQQQPENHFYQAALLLLEASQKHILRYAELAETMAANCTDAQRREELLTIAEISRHNAQHKPQTFWQACQLFWYMNIILQYESNASSLSLGRFDQYMLPFYQTSLTQGEDAAFLKELLESLWVKCNDIVLLRSTSSARYFAGFPTGYTALLGGLTENGRSAVNVLSFLCLDAYQSVQLPQPNLGVRTNALIDTPFLMKTAETIRFGTGIPQIFNDEVVVPAFLNRGVSLEDARDYSVVGCVELSIPGRTYGLHDIAMFNLLKVMEICLHENEGNAALTYEGLLEQIRAKISHYITLMVEGSNICDIGHRDWAPVPLLSSFISDCLEKGRDITDGGARYNFSGVQGIGIANLSDSLHALKGMVFEQQRLSFDELLSVLKANFATPEGEKVRARLINRFEKYGNDIDEVDNISAELLRHYCKEVEKYQNPRGGYFTPGSYTVSAHVPLGSVVGATPDGRFAGEQLADGGLSPMLGQDAQGPTAVLKSVSKLDNTLLSNGTLLNVKFTPATLEGEAGLRKLADFLRAFTQLKLQHIQFNVVNADTLREAQQRPQDYAGLVVRVAGYSAFFVELSKEIQDDIIRRTAHQL	5.49 ± 0.94	3.15 ± 0.29										
